Several values for one entry are separate records, joined by “and”; a condition that tells them apart may be missing. Equal entries are not always repeated.

As a reminder, the stoichiometry N is a count of units in the complex or per binding partner.

The target in data set [1] is integrin β1A cytoplasmic domain fused to the Gal4 DNA BD (human). The data set can be described thus: two-hybrid.
Data set [2] deals with the molecule itself. The data set can be described thus: cross-linking.

integrin β1A cytoplasmic domain fused to the Gal4 DNA BD (human), sequence (P05556 21-798): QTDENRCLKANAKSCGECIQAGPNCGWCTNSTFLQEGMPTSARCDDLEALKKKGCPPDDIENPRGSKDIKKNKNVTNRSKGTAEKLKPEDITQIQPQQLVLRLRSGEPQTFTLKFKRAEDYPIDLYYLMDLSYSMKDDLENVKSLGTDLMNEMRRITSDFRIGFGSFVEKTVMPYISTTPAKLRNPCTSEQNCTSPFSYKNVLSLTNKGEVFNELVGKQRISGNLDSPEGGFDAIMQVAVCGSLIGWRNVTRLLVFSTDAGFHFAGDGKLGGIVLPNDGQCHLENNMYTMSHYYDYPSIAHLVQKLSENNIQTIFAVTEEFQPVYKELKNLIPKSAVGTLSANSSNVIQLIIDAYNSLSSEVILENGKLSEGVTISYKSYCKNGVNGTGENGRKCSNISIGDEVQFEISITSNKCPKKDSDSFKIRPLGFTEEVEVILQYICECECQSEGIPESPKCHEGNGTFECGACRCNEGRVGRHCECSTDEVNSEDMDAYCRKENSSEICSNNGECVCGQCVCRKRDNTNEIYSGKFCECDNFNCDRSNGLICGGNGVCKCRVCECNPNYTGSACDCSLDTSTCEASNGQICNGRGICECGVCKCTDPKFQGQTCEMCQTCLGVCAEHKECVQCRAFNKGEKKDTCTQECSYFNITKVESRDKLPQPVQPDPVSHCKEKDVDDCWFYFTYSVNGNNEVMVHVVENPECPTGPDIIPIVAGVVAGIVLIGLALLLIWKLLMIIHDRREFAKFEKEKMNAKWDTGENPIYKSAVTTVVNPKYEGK

Turning to “filamin-B_(var-1)(19–24), Gal4 AD fusion (domain or fragment)”, the fold binding (β-galactosidase activity) against wild-type filamin-B(19–24) in data set [1] was 2 fold and 3 fold.

B1: NH2-terminal HA-tagged FLN-B(19–24) (domain or fragment, human, UniProt O75369-1 2009-2602, looked up)
chain: GRGLSEGRTFEMSDFIVDTRDAGYGGISLAVEGPSKVDIQTEDLEDGTCKVSYFPTVPGVYIVSTKFADEHVPGSPFTVKISGEGRVKESITRTSRAPSVATVGSICDLNLKIPEINSSDMSAHVTSPSGRVTEAEIVPMGKNSHCVRFVPQEMGVHTVSVKYRGQHVTGSPFQFTVGPLGEGGAHKVRAGGPGLERGEAGVPAEFSIWTREAGAGGLSIAVEGPSKAEITFDDHKNGSCGVSYIAQEPGNYEVSIKFNDEHIPESPYLVPVIAPSDDARRLTVMSLQESGLKVNQPASFAIRLNGAKGKIDAKVHSPSGAVEECHVSELEPDKYAVRFIPHENGVHTIDVKFNGSHVVGSPFKVRVGEPGQAGNPALVSAYGTGLEGGTTGIQSEFFINTTRAGPGTLSVTIEGPSKVKMDCQETPEGYKVMYTPMAPGNYLISVKYGGPNHIVGSPFKAKVTGQRLVSPGSANETSSILVESVTRSSTETCYSAIPKASSDASKVTSKGAGLSKAFVGQKSSFLVDCSKAGSNMLLIGVHGPTTPCEEVSMKHVGNQQYNVTYVVKERGDYVLAVKWGEEHIPGSPFHVTVP
Consider B1, for which the “stoichiometry N” value in data set [2] came to 2.

B2: COOH-terminal GFP-tagged FLN-B(19–24) (domain or fragment, human, UniProt O75369-1 2009-2602, looked up)
chain: GRGLSEGRTFEMSDFIVDTRDAGYGGISLAVEGPSKVDIQTEDLEDGTCKVSYFPTVPGVYIVSTKFADEHVPGSPFTVKISGEGRVKESITRTSRAPSVATVGSICDLNLKIPEINSSDMSAHVTSPSGRVTEAEIVPMGKNSHCVRFVPQEMGVHTVSVKYRGQHVTGSPFQFTVGPLGEGGAHKVRAGGPGLERGEAGVPAEFSIWTREAGAGGLSIAVEGPSKAEITFDDHKNGSCGVSYIAQEPGNYEVSIKFNDEHIPESPYLVPVIAPSDDARRLTVMSLQESGLKVNQPASFAIRLNGAKGKIDAKVHSPSGAVEECHVSELEPDKYAVRFIPHENGVHTIDVKFNGSHVVGSPFKVRVGEPGQAGNPALVSAYGTGLEGGTTGIQSEFFINTTRAGPGTLSVTIEGPSKVKMDCQETPEGYKVMYTPMAPGNYLISVKYGGPNHIVGSPFKAKVTGQRLVSPGSANETSSILVESVTRSSTETCYSAIPKASSDASKVTSKGAGLSKAFVGQKSSFLVDCSKAGSNMLLIGVHGPTTPCEEVSMKHVGNQQYNVTYVVKERGDYVLAVKWGEEHIPGSPFHVTVP
For the molecule B2, in data set [2], the “stoichiometry N” value is 2.

(Values after PMC2199218 (The Journal of Cell Biology, 2002).)
